Target: T1, modified human HLA-G β2M MHC class I complex (HLA-G specific amino acids replaced by HLA-A consensus amino … (human))
T1 construct: also called degrafted HLA-G
Assay: SPR (Biacore T200), antibody captured, HLA-G complex injected

- binding result: no binding (tested: 2.5 up to 800 nM)
B1: HLA-G-0032 (antibody, V domains shown)
VH: QVQLQQSGAELVKPGSSVKISCKASGYSFPSYDMHWIKQQPGNGLEWIGWIYPGNGNTKYNQKFNGKASLTADKSSSTAYMQLSSLTSEDSAVYFCAKPTVATRYNWFAYWGQGTLVTVSS
VL: QIVLTQSPALMSASPGEKVTMTCSASSSVNYMHWYQQKPRSSPKPWIYLTSNLASGVPARFSGSGSGTSYSLTISTMEAEDAATYYCQQWSSNLPITFGSGTKLEIK

From US20200102389A1 (Hoffmann-La Roche, published 2020)
